Measured values as given in US20230414702A1 (INSERM INSTITUT NATIONAL DE LA SANT ET DE LA REC HERCHE M …, published 2023).
Non-standard residues stand in square brackets, D forms with d. No end group written: not given here. NMeR = CN[C@@H](CCCNC(=N)N)C(=O)O; Nle = CCCC[C@H](N)C(=O)O

How the values were obtained:
CD47 receptor [1] = biological target: T1, CD47 receptor (UniProt Q08722 19-323, limits assumed); experiment: microscale thermophoresis (MST), labeled MEC-1 membrane preparation
T1 construct: whole, on cells; The assays used a whole MEC-1 cell membrane preparation, not purified CD47; also called membrane preparation from MEC-1 cells
Protocol: (§1) For all experiments the concentration of the NT.115-labeled membrane was kept constant, while the concentrations of the ligand (peptide) was varied. After a short incubation time (5 min) the samples were loaded into MST premium glass capillaries and the MST analysis was performed using the Monolith NT.115.

CD47 receptor [2] = biological target: T1, CD47 receptor; experiment: column Kd (OR); biolayer interferometry on Octet RED96, biotinylated MEC-1 membrane preparation on SSA biosensors
CD47 receptor [3] = biological target: T1, CD47 receptor; experiment: column Kd(µM)PR; binding to MEC-1 membrane preparation, method not named in Table 4
CD47 receptor [4] = biological target: T1, CD47 receptor; experiment: apparent Kd, microscale thermophoresis (MST), Monolith NT.115, NT.115-labeled membrane
Protocol: as §1

CD47 receptor [5] = biological target: T1, CD47 receptor; experiment: apparent Kd, biolayer interferometry (BI) on Octet RED96, biotinylated MEC-1 membrane preparation on SSA biosensors
From the text: This system monitors interference of light reflected from two sources (an internal reflection surface and the liquid/solid interface of a fiber optic sensor) to measure the rate of binding of molecules to the biosensor surface. MEC-1 cells membrane preparation is biotinylated with the EZ-Link NHS-PEG4-Biotin kit from Thermo-Scientific and excess biotin is removed using desalting column from Thermo-Scientific. […] Typically, the biosensors were pre-equilibrated in PBS containing either biotinylated membranes or biocytine 100 μg/mL. Biosensors are then equilibrated in assay buffer for 10 min, brought to baseline in assay buffer for 60 sec. and transferred to wells containing peptide in dose-response (association for 120 sec. and dissociation for 300 sec.). The double reference with either membrane-loaded biosensors without any peptide dose-response or biocytine-loaded biosensors with each peptide dose-response were run in parallel for background signal double subtractions.

CD47 receptor [6] = biological target: T1, CD47 receptor; experiment: binding to MEC-1 membrane preparation; method not named in Table 3
CD47 receptor [7] = biological target: T1, CD47 receptor; experiment: binding to MEC-1 membrane preparation; method not named in Table 3 (same value as the OR column of Table 2)

T1 sequence (Q08722 19-323 limits assumed): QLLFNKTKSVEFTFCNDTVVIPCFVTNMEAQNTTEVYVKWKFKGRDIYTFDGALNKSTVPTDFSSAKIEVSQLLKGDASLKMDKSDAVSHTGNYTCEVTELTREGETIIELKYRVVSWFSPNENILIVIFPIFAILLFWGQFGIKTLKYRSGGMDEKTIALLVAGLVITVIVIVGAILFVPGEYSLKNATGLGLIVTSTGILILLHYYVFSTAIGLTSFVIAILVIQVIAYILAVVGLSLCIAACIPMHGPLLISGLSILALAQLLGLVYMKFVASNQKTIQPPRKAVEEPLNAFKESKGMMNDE

In the case of Ac-KRFYVVMWKK-NH2 [peptide 2, Ac-KRFYVVMWKK-NH2], the Kd (CD47 receptor [1]) is reported as 1.2 µM and the Kd (CD47 receptor [2]) is reported as 40 µM.

H-[dK][NMeR]FYVV[Nle]WK[dK]-OH [PKT16, H-(D)K ψ(CONMe)R F Y V V X W K (D)K-OH] showed a Kd (CD47 receptor [3]) of 12.1 µM, a Kd (CD47 receptor [4]) of 1.6 µM and a Kd (CD47 receptor [5]) of 7.4 µM.

B1: M/Nle, kRFYVV(Nle)WKk (peptide)
peptide: H-[dK]RFYVV[Nle]WK[dK]-OH
SMILES: CCCC[C@H](NC(=O)[C@@H](NC(=O)[C@@H](NC(=O)[C@H](Cc1ccc(O)cc1)NC(=O)[C@H](Cc1ccccc1)NC(=O)[C@H](CCCNC(=N)N)NC(=O)[C@H](N)CCCCN)C(C)C)C(C)C)C(=O)N[C@@H](Cc1c[nH]c2ccccc12)C(=O)N[C@@H](CCCCN)C(=O)N[C@H](CCCCN)C(=O)O
Binder B1 has a Kd (CD47 receptor [6]) of 18 µM.

B2: 4N1K (peptide)
peptide: KRFYVVMWKK
notes: Decapeptide that mimics the C-terminal domain of TSP-1
B2 gave a Kd (CD47 receptor [1]) of 2.28 µM, a Kd (CD47 receptor [7]) of 19 µM and a Kd (CD47 receptor [2]) of 19 µM.

B3: PKT17, H-(D)K ψ(CONMe)R F Y V V L W K (D)K-OH (peptide)
peptide: H-[dK][NMeR]FYVVLWK[dK]-OH
SMILES: CC(C)C[C@H](NC(=O)[C@@H](NC(=O)[C@@H](NC(=O)[C@H](Cc1ccc(O)cc1)NC(=O)[C@H](Cc1ccccc1)NC(=O)[C@H](CCCNC(=N)N)N(C)C(=O)[C@H](N)CCCCN)C(C)C)C(C)C)C(=O)N[C@@H](Cc1c[nH]c2ccccc12)C(=O)N[C@@H](CCCCN)C(=O)N[C@H](CCCCN)C(=O)O
B3 showed a Kd (CD47 receptor [3]) of 12 µM.

B4: K9/A, kRFYVVMW(A)k (peptide)
peptide: H-[dK]RFYVVMWA[dK]-OH
SMILES: CSCC[C@H](NC(=O)[C@@H](NC(=O)[C@@H](NC(=O)[C@H](Cc1ccc(O)cc1)NC(=O)[C@H](Cc1ccccc1)NC(=O)[C@H](CCCNC(=N)N)NC(=O)[C@H](N)CCCCN)C(C)C)C(C)C)C(=O)N[C@@H](Cc1c[nH]c2ccccc12)C(=O)N[C@@H](C)C(=O)N[C@H](CCCCN)C(=O)O
notes: Ala-scan analogue of PKHB1
B4 showed a Kd (CD47 receptor [6]) of 27 µM.

Binder [dK]RFYVVAWK[dK] (Ala-scan analogue of PKHB1) [M7/A, kRFYVV(A)WKk] has a Kd (CD47 receptor [6]) of 42 µM.

B5: R2/A, k(A)FYVVMWKk (peptide)
peptide: H-[dK]AFYVVMWK[dK]-OH
SMILES: CSCC[C@H](NC(=O)[C@@H](NC(=O)[C@@H](NC(=O)[C@H](Cc1ccc(O)cc1)NC(=O)[C@H](Cc1ccccc1)NC(=O)[C@H](C)NC(=O)[C@H](N)CCCCN)C(C)C)C(C)C)C(=O)N[C@@H](Cc1c[nH]c2ccccc12)C(=O)N[C@@H](CCCCN)C(=O)N[C@H](CCCCN)C(=O)O
notes: Ala-scan analogue of PKHB1
Binder B5 has a Kd (CD47 receptor [6]) of 6.2 µM.

B6: PKT11, H-(D)K ψ(CONMe)R F Y V V M W K (D)K-OH (peptide)
peptide: KRFYVVMWKK
modifications: (D)-Lys at positions 1 and 10; N-methyl pseudopeptide bond ψ(CONMe) between (D)Lys1 and Arg2
Binder B6 has a Kd (CD47 receptor [3]) of 21.7 µM.

KRFYVVMWKK ((D)-Lys at position 1 and (D)-Lys at position 10, also called 4(PKHB1)) [PKHB1, H-(D)K R F Y V V M W K (D)K-OH] showed a Kd (CD47 receptor [1]) of 3.04 µM, a Kd (CD47 receptor [3]) of 22.6 µM and a Kd (CD47 receptor [7]) of 43 µM. The Kd (CD47 receptor [2]) was 43 µM.

B7: PKT15, H-(D)K ψ(CONMe)R F Y V V M W ψ(CONMe)K (D)K-OH (peptide)
peptide: KRFYVVMWKK
modifications: (D)-Lys at positions 1 and 10; N-methyl pseudopeptide bonds ψ(CONMe) between (D)Lys1 and Arg2 and between Trp8 and Lys9
For B7, the Kd (CD47 receptor [3]) was 16 µM.
